# Test results from US20100028995A1, “Tetranectin Trimerizing Polypeptides” (Anaphore, Inc., priority 2004, published 2010).
# Assay: Differential scanning calorimetry (VP-DSC) of tetranectin trimerisation domain and deletion peptides
# Type: physicochemical
# Conditions: for TM if N is free: in °C
# Protocol: A characterization of the thermal stability of the trimerisation domain of tetranectin was obtained using DSC, both of the full length trimerisation domain and of deletion mutants.
# The DSC scans were conducted on a VP-DSC from MicroCal LLC (Northampton, Mass.). For most of the scans a PBS buffer containing 110 mM NaCl and 40 mM NaPO4 was used. The pH was 7.4. The scans were made from 10 to 110° C. under approximately 25 psi at a scan rate of 1° C./min and a pre-scan period of 20 minutes. At least two scans with buffer in both chambers were conducted before removal of buffer from both chambers and the filling with new buffer and protein/peptide solution to the reference and sample chamber respectively.
# Peptides were synthesized by an outside vendor and were based on the tetranectin sequence, however, minor modifications were applied. In particular, the residue corresponding to Cys 50 was changed to a Serine. Also, residue number 28 is in native TN polymorphic, being either a Ser or an Ala. In the following experiments, Ala was selected. In addition, the N and C-terminal of the peptides were modified to remove charge and mimic natural peptides, increase stability toward digestion by aminopeptidases and block against synthetase activity. In the N-terminal deletion class peptides the N-terminal is acetylated and the C-terminal is prolonged with a β-Ala and a Cys. For the C-terminal deletion class peptides the modification are amidation of the C-terminal and all the sequences start with Cys-βAla.
# Since these peptides were lyophilized from a TFA solution the pH of the redissolved peptides had to be adjusted. This was done using our micro-pH meter from Unisense. The pH was adjusted to the same mV value as found for the buffer by adding small portions of 0.2 M NaOH to the solution immediately followed by mixing. In order to prevent disulphide-bridge dimerisation and possible stabilization of the multimeric structures all scanning of peptides were conducted in 5 mM β-mercaptoethanol. Prior to scanning and addition of β-mercaptoethanol the sample and buffer were extensively degassed under vacuum while stirring.
# Trip-A (SEQ ID NO:42) was scanned at concentrations ranging from 2 mM to 0.125 mM, by lowering the concentration by a factor 2. This corresponds to protein concentrations from 12.7 mg-ml to 0.80 mg/mL. […] The difference between the two-state model and the non-2-state model can be stated as that the non-2-state model contains a contribution to the unfolding energy from co-operative stabilization of subunits. This leads to a sharpening of the peak. The parameter introduced relative to the 2-state model is called the ΔHv, or the van't Hoff enthalpy. The ratio between ΔHv and ΔH can be taken as a measurement of the number of subunits in one unfolding unit. The result is shown on FIG. 13 and Table 6. The data is from one representative scan and fitted to the non-2-state model.
# The “dissociation with dCp” model describes a system where unfolding and dissociation of a multisubunit protein is simultaneous. The data is from one representative scan and fitted to the “dissociation with dCp” model. The ΔHm and dCp value is per trimer.
# [1] = Trip-A 0.125 mM, dissociation with dCp model
# [2] = Trip-A 0.125 mM, dissociation with dCp model, per trimer
# [3] = Trip-A 0.125 mM, non-2-state model, PBS pH 7.4
# [4] = Trip-A 0.25 mM, dissociation with dCp model
# [5] = Trip-A 0.25 mM, dissociation with dCp model, per trimer
# [6] = Trip-A 0.25 mM, non-2-state model, PBS pH 7.4
# [7] = Trip-A 0.5 mM, Down, first scan
# [8] = Trip-A 0.5 mM, Down, first scan, per trimer
# [9] = Trip-A 0.5 mM, Down, sec. scan, per trimer
# [10] = Trip-A 0.5 mM, Up, first scan, per trimer
# [11] = Trip-A 0.5 mM, Up, second scan, per trimer
# [12] = Trip-A 0.5 mM, dissociation with dCp model
# [13] = Trip-A 0.5 mM, dissociation with dCp model, per trimer
# [14] = Trip-A 0.5 mM, non-2-state model, PBS pH 7.4
# [15] = Trip-A 1.0 mM, dissociation with dCp model
# [16] = Trip-A 1.0 mM, dissociation with dCp model, per trimer
# [17] = Trip-A 1.0 mM, non-2-state model, PBS pH 7.4
# [18] = Trip-A 2.0 mM, dissociation with dCp model
# [19] = Trip-A 2.0 mM, dissociation with dCp model, per trimer
# [20] = Trip-A 2.0 mM, non-2-state model, PBS pH 7.4
substance,measurement,setting,value
Trip-A: full length trimerisation domain of tetranectin (SEQ ID NO:42) (SPGTEPPTQKPKKIVNAKKDVVNTKMFEELKARLDTLSQEVALLKEQQALQTVSLKGS),Rev. (%),"Table 10, N-terminal deletion peptides, Conc per construct",97.6%
same,ΔHm (kJ/mol(trimer)),"Table 10, N-terminal deletion peptides, dissociation with dCp model, Conc per construct",319.2 ± 0.4 kJ/mol(trimer)
same,TM (° C.),"Table 10, N-terminal deletion peptides, dissociation with dCp model, PBS pH 7.4, Conc per construct 0.32-0.63 (column Conc)",84.7 ± 0.1 °C
same,dCp (kJ/molK),"Table 10, N-terminal deletion peptides, per trimer, Conc per construct",0.7 ± 0.1 kJ/molK
same,Rev. (%),"Table 11, C-terminal deletion peptides, Conc per construct",97.6%
same,ΔHm (kJ/mol(trimer)),"Table 11, C-terminal deletion peptides, dissociation with dCp model, Conc per construct",319.2 ± 0.4 kJ/mol(trimer)
same,TM (° C.),"Table 11, C-terminal deletion peptides, dissociation with dCp model, PBS pH 7.4, Conc per construct 0.4-0.63 (column Conc)",84.7 ± 0.1 °C
same,dCp (kJ/molK),"Table 11, C-terminal deletion peptides, per trimer, Conc per construct",0.7 ± 0.1 kJ/molK
same,Rev. (%),[1],98.9%
same,TM (° C.) (N = 3),[1],82.2 ± 0.3 °C
same,N (free),[1],1.88
same,TM if N is free,[1],78.9 ± 0.3
same,dCp (kJ/molK),[2],2.4 ± 0.2 kJ/molK
same,ΔHm,[2],66.2 ± 0.454 kcal/mol
same,Reversibility (%),[3],94.2%
same,TM (° C.),[3],73.1 ± 0.03 °C
same,ΔH,[3],15.2 ± 0.048 kcal/mol
same,ΔHv,[3],42.52 ± 0.14 kcal/mol
same,ΔHv/ΔH,[3],2.8
same,Rev. (%),[4],98.2%
same,TM (° C.) (N = 3),[4],81.4 ± 0.1 °C
same,N (free),[4],2.48
same,TM if N is free,[4],81.2 ± 0.1
same,dCp (kJ/molK),[5],3.3 ± 0.1 kJ/molK
same,ΔHm,[5],68 ± 0.17 kcal/mol
same,Reversibility (%),[6],95.6%
same,TM (° C.),[6],75.9 ± 0.1 °C
same,ΔH,[6],12.7 ± 0.096 kcal/mol
same,ΔHv,[6],46.03 ± 0.406 kcal/mol
same,ΔHv/ΔH,[6],3.6
same,Rev. (%),[7],68.9%
same,TM (° C.),"Trip-A 0.5 mM, Down, first scan (refolding), dissociation with dCp model",79.8 ± 0.1 °C
same,N (free),[7],0.66
same,TM if N is free,[7],81.4 ± 0.4
same,dCp (kJ/molK),[8],3.5 ± 0.1 kJ/molK
same,ΔHm,[8],-59.51 ± 0.311 kcal/mol
same,Rev. (%),"Trip-A 0.5 mM, Down, sec. scan",85.6%
same,TM (° C.),"Trip-A 0.5 mM, Down, sec. scan (refolding), dissociation with dCp model",80.2 ± 0.2 °C
same,N (free),"Trip-A 0.5 mM, Down, sec. scan",1.45
same,TM if N is free,"Trip-A 0.5 mM, Down, sec. scan",85.6 ± 0.3
same,dCp (kJ/molK),[9],6.9 ± 0.1 kJ/molK
same,ΔHm,[9],-40.99 ± 0.526 kcal/mol
same,Rev. (%),"Trip-A 0.5 mM, Up, first scan",94.2%
same,N (free),"Trip-A 0.5 mM, Up, first scan",2.13
same,TM if N is free,"Trip-A 0.5 mM, Up, first scan",84.0 ± 0.1
same,TM (° C.),"Trip-A 0.5 mM, Up, first scan, dissociation with dCp model",82.3 ± 0.1 °C
same,dCp (kJ/molK),[10],1.7 ± 0.1 kJ/molK
same,ΔHm,[10],68.91 ± 0.14 kcal/mol
same,Rev. (%),"Trip-A 0.5 mM, Up, second scan",94.0%
same,N (free),"Trip-A 0.5 mM, Up, second scan",3.7
same,TM if N is free,"Trip-A 0.5 mM, Up, second scan",80.3 ± 0.1
same,TM (° C.),"Trip-A 0.5 mM, Up, second scan, dissociation with dCp model",81.7 ± 0.1 °C
same,dCp (kJ/molK),[11],2.0 ± 0.1 kJ/molK
same,ΔHm,[11],64.89 ± 0.072 kcal/mol
same,Rev. (%),[12],97.6%
same,TM (° C.) (N = 3),[12],84.7 ± 0.1 °C
same,N (free),[12],3.93
same,TM if N is free,[12],83.5 ± 0.1
same,dCp (kJ/molK),[13],0.67 ± 0.01 kJ/molK
same,ΔHm,[13],76.29 ± 0.096 kcal/mol
same,Reversibility (%),[14],94.1%
same,TM (° C.),[14],81.4 ± 0.1 °C
same,ΔH,[14],11.6 ± 0.096 kcal/mol
same,ΔHv,[14],55.59 ± 0.574 kcal/mol
same,ΔHv/ΔH,[14],4.8
same,Rev. (%),[15],97.6%
same,TM (° C.) (N = 3),[15],83.2 ± 0.1 °C
same,N (free),[15],2.21
same,TM if N is free,[15],86.0 ± 0.1
same,dCp (kJ/molK),[16],0.58 ± 0.02 kJ/molK
same,ΔHm,[16],72.49 ± 0.14 kcal/mol
same,Reversibility (%),[17],97.7%
same,TM (° C.),[17],86.5 ± 0.1 °C
same,ΔH,[17],8.82 ± 0.14 kcal/mol
same,ΔHv,[17],65.06 ± 1.29 kcal/mol
same,ΔHv/ΔH,[17],7.4
same,Rev. (%),[18],95.6%
same,TM (° C.) (N = 3),[18],85.2 ± 0.4 °C
same,N (free),[18],5.67
same,TM if N is free,[18],77.0 ± 0.5
same,dCp (kJ/molK),[19],−7.1 ± 0.5 kJ/molK
same,ΔHm,[19],91.9 ± 0.813 kcal/mol
same,Reversibility (%),[20],105 (!) %
same,TM (° C.),[20],90.4 ± 0.1 °C
same,ΔH,[20],7.74 ± 0.072 kcal/mol
same,ΔHv,[20],66.9 ± 0.837 kcal/mol
same,ΔHv/ΔH,[20],8.6
same,Rev (%),"Trip-A, pH 3.0",93.1%
same,TM (° C.),"Trip-A, pH 3.0 (100 mM NaCl 25 mM NaPO4)",84.6 ± 0.2 °C
same,dCp (kJ/molK),"Trip-A, pH 3.0, per trimer",11.9 ± 0.3 kJ/molK
same,ΔHm,"Trip-A, pH 3.0, per trimer",71.2 ± 0.693 kcal/mol
same,Rev (%),"Trip-A, pH 4.0",88.1%
same,TM (° C.),"Trip-A, pH 4.0 (100 mM NaCl 25 mM NaAcetat)",82.6 ± 0.1 °C
same,dCp (kJ/molK),"Trip-A, pH 4.0, per trimer",0.12 ± 0.07 kJ/molK
same,ΔHm,"Trip-A, pH 4.0, per trimer",70.29 ± 0.22 kcal/mol
same,Rev (%),"Trip-A, pH 7.4",97.6%
same,TM (° C.),"Trip-A, pH 7.4",84.7 ± 0.1 °C
same,dCp (kJ/molK),"Trip-A, pH 7.4, per trimer",0.67 ± 0.05 kJ/molK
same,ΔHm,"Trip-A, pH 7.4, per trimer",76.29 ± 0.096 kcal/mol
same,Tm values,"across concentrations 0.125-2 mM, dissociation with dCp model",81-85 °C
same,ΔHm,"across concentrations, dissociation with dCp model",approximately 300 kJ/mole
same,stability to pH,"scans at pH 3.0, 4.0 and 7.4",exhibits stability to pH
